# T1: soluble human IL-6 receptor (human, UniProt P08887 20-357)
# T1 construct: also called hsIL-6R
# T1 sequence: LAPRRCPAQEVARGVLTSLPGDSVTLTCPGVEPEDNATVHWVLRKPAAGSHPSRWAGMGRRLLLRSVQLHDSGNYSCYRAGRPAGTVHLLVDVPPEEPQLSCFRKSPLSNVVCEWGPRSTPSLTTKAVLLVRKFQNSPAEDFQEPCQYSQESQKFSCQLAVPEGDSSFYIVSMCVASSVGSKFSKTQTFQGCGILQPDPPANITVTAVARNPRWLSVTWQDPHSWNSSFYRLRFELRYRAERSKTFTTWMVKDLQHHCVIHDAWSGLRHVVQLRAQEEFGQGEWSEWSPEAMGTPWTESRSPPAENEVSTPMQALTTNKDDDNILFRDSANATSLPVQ
# T2: soluble human IL-6 receptor (hsIL-6R) (human, UniProt P08887 20-357)
# T2 sequence: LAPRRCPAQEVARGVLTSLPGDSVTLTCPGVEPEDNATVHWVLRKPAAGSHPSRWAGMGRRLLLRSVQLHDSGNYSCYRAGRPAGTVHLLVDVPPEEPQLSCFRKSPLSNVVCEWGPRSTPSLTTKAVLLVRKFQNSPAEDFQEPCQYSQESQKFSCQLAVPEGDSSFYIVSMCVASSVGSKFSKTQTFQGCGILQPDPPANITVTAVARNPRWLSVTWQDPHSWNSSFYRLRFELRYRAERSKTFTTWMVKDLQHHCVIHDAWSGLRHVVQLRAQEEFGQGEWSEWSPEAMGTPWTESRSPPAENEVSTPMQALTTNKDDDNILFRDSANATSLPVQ
# T3: human FcγRIIb extracellular domain with C-terminal His tag (human, UniProt P31994 43-217)
# T3 construct: extracellular domain; not shown: His tag at the C terminus
# T3 sequence (looked up): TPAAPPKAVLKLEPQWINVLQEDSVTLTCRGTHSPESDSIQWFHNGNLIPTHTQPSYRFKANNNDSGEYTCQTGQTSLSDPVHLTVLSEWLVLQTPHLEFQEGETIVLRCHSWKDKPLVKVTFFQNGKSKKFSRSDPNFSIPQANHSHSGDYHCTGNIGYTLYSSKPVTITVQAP
# T4: human FcγRIIa type H (H131) extracellular domain with C-terminal His tag (human, UniProt P12318 34-217)
# T4 construct: extracellular domain; also called FcγRIIaH; not shown: His tag at the C terminus
# T4 sequence (looked up): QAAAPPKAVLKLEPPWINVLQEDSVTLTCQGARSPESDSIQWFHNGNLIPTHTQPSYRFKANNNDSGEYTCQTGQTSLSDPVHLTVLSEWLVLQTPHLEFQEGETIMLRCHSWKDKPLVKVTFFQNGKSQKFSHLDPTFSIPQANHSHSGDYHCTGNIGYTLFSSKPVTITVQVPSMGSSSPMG
# T5: human FcγRIIa type H extracellular domain (human, UniProt P12318 34-217)
# T5 construct: also called FcγRIIaH; FcγRIIa(H); not shown: His tag at the C terminus
# T5 sequence: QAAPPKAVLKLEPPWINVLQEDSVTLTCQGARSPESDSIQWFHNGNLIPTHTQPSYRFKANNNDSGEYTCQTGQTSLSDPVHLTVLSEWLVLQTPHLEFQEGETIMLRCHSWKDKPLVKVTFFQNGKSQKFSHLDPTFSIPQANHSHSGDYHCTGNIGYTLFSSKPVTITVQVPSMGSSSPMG
# T6: human FcγRIIa type R extracellular domain (human, UniProt P12318 34-217)
# T6 construct: also called FcγRIIaR; FcγRIIa(R); not shown: His tag at the C terminus
# T6 chain: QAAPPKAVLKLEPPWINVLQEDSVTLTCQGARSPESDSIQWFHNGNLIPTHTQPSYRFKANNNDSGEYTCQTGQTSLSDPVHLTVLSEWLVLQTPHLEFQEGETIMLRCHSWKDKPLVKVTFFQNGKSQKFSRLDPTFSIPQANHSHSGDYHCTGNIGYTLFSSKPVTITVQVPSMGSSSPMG
# T7: human FcγRIIb extracellular domain (human, UniProt P31994 43-217)
# T7 construct: also called FcγIIB; not shown: His tag at the C terminus
# T7 sequence: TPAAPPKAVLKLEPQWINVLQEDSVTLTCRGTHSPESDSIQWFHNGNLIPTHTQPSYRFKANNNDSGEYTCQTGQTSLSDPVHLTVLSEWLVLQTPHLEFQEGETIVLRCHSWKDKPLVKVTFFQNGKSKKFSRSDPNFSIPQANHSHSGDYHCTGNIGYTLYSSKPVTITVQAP
# Experiments:
# [1] = target: T1, soluble human IL-6 receptor; experiment: SPR (Reference Example 6)
# Method: (§1) The kinetic analysis of the antigen-antibody reactions was conducted in solutions with 2 mM and 3 μM calcium ion concentrations, set as high and low calcium ion concentration conditions, respectively. The antibody of interest was captured on Sensor chip CM4 (GE Healthcare) on which an appropriate amount of Protein A (Invitrogen) was immobilized by an amine coupling method. Two buffers [10 mM ACES, 150 mM NaCl, 0.05% (w/v) Tween 20, and 2 mM CaCl₂) (pH 7.4) or 10 mM ACES, 150 mM NaCl, 0.05% (w/v) Tween 20, and 3 μmol/L CaCl₂ (pH 7.4)] were used as running buffers. These buffers were used for diluting human IL-6 receptor. All the measurements were conducted at 37° C.
# (§2) Subsequently, the sensor chip was regenerated by injecting 10 mM glycine-HCl (pH 1.5) at a flow rate 30 μL/min for 30 seconds. Dissociation constants (KD) (M) were calculated from the sensorgrams obtained in the measurement, using a steady-state affinity model. Each parameter was calculated using the Biacore T100 Evaluation Software (GE Healthcare).
# [2] = target: T2, soluble human IL-6 receptor (hsIL-6R); experiment: SPR (Biacore T100), 3 µM CaCl2, pH 7.4, 37 C; KD estimated from Req, Rmax, RI and C by Equation 3
# Method: as §1, §2
# [3] = target: T2, soluble human IL-6 receptor (hsIL-6R); experiment: SPR (Biacore T100), 3 µM CaCl2; estimated by Equation 3; summary table
# Method: as §1, §2
# [4] = target: T3, human FcγRIIb extracellular domain with …; experiment: SPR (Biacore), antibody captured, FcγR analyte
# [5] = target: T4, human FcγRIIa type H (H131) …; experiment: SPR (Biacore), antibody captured, FcγR analyte
# [6] = target: T5, human FcγRIIa type H extracellular …; experiment: SPR (Biacore), antibody captured on chip, FcγR extracellular domain as analyte, 25 C
# [7] = target: T6, human FcγRIIa type R extracellular …; experiment: as above
# [8] = target: T8, human FcγRIa extracellular domain (human, UniProt P12314 16-292); experiment: as above
# T8 construct: also called CD64; not shown: His tag at the C terminus
# [9] = target: T7, human FcγRIIb extracellular domain; experiment: as above
# [10] = target: T7, human FcγRIIb extracellular domain; experiment: ratio of the SPR KD for FcγRIIaH to the KD for FcγRIIb (selectivity)
# [11] = target: T7, human FcγRIIb extracellular domain; experiment: ratio of the SPR KD for FcγRIIaR to the KD for FcγRIIb (selectivity)
# [12] = target: T6, human FcγRIIa type R extracellular …; experiment: fold against IL6R-B3/IL6R-L, from SPR KD values
# [13] = target: T7, human FcγRIIb extracellular domain; experiment: fold against IL6R-B3/IL6R-L, from SPR KD values
# T8 sequence (P12314 16-292): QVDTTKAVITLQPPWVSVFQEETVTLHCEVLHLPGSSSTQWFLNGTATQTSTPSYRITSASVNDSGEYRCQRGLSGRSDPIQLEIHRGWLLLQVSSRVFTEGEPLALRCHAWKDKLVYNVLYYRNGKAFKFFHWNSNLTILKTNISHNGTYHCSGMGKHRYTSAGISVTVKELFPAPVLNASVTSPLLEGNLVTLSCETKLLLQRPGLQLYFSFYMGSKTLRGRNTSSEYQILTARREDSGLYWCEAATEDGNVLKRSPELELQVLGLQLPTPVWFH
binder,measurement,setting,value
"FH4-IgG1 (antibody, V domains shown) VH: QVQLVQSGAEVKKPGSSVKVSCKASGGTFSSYAISWVRQAPGQGLEWMGGIIPIFGTANYAQKFQGRVTITADESTSTAYMELSSLRSEDTAVYYCARERDYYDSSGYYDAFDIWGQGTMVTVSS VL: ETTVTQSPSFLSASVGDRVTITCITTTDIDDDMNWFQQEPGKAPKLLISEGNILRPGVPSRFSSSGYGTDFTLTISKLQPEDFATYYCLQSDNLPFTFGQGTKLEIKR [FH4-IgG1, listing 1 of 2 here]",Ca-dependent binding ability,[1],≥ 100 fold
"FH4-IgG1 (antibody, V domains shown) VH: QVQLVQSGAEVKKPGSSVKVSCKASGGTFSSYAISWVRQAPGQGLEWMGGIIPIFGTANYAQKFQGRVTITADESTSTAYMELSSLRSEDTAVYYCARERDYYDSSGYYDAFDIWGQGTMVTVSS VL: ETTVTQSPSFLSASVGDRVTITCITTTDIDDDMNWFQQEPGKAPKLLISEGNILRPGVPSRFSSSGYGTDFTLTISKLQPEDFATYYCLQSDNLPFTFGQGTKLEIKR [FH4-IgG1, listing 2 of 2 here]",Kd,[2],~34000 nM
same,Kd,[3],≥ 34000 nM
"6RL#9-IgG1 (antibody, V domains shown, also called antibody 6RL#9) VH: QVQLVQSGAEVKKPGASVKVSCKASGYTFTSYYMHWVRQAPGQGLEWMGIINPSGGSTSYAQKFQGRVTMTRDTSTSTVYMELSSLRSEDTAVYYCARDDPGGGEYYFDYWGQGTLVTVSS VL: QSVLTQPPSVSGAPGQRVTISCTGSRSNMGAGYDVHWYQLLPGAAPKLLISHNTHRPSGVPDRFSGSKSGASASLAITGLQAEDEADYYCQSHDSSLSAVVFGGGTKLTVLS",Ca-dependent binding ability,[1],≥ 100 fold
"6RL#9-IgG1 (antibody, V domains shown) VH: QVQLVQSGAEVKKPGASVKVSCKASGYTFTSYYMHWVRQAPGQGLEWMGIINPSGGSTSYAQKFQGRVTMTRDTSTSTVYMELSSLRSEDTAVYYCARDDPGGGEYYFDYWGQGTLVTVSS VL: QSVLTQPPSVSGAPGQRVTISCTGSRSNMGAGYDVHWYQLLPGAAPKLLISHNTHRPSGVPDRFSGSKSGASASLAITGLQAEDEADYYCQSHDSSLSAVVFGGGTKLTVLS",Kd,[2],~31000 nM
same,Kd,[3],≥ 31000 nM
"IL6R-BP455/IL6R-L (antibody, human IgG1, kappa, P396L introduced into IL6R-BP423; copies: 2 + 2) heavy: QVQLQESGPGLVKPSETLSLTCAVSGHSISHDHAWSWVRQPPGEGLEWIGFISYSGITNYNPSLQGRVTISRDNSKNTLYLQMNSLRAEDTAVYYCARSLARTTAMDYWGEGTLVTVSSASTKGPSVFPLAPSSKSTSGGTAALGCLVKDYFPEPVTVSWNSGALTSGVHTFPAVLQSSGLYSLSSVVTVPSSSLGTQTYICNVNHKPSNTKVDKKVEPKSCDKTHTCPPCPAPDLLGDDSVFLFPPKPKDTLMISRTPEVTCVVVDVAEEDGEVKFNWYVDGVEVHNAKTKPREEQYNSTYRVVSVLTVLHQDWLNGKEYKCKVSNKALPRPIEKTISKAKGQPREPQVYTLPPSRDELTKNQVSLTCLVKGFYPSDIAVEWESNGQPENNYKTTPLVLDSDGSFFLYSKLTVDKSRWQQGNVFSCSVMHEALHNHYTQESLSLSP light: not shown",Kd,[4],4 nM
same,Kd,[5],1600 nM
"IL6R-BP565/IL6R-L (antibody, human IgG1, kappa, copies: 2 + 2) heavy: QVQLQESGPGLVKPSETLSLTCAVSGHSISHDHAWSWVRQPPGEGLEWIGFISYSGITNYNPSLQGRVTISRDNSKNTLYLQMNSLRAEDTAVYYCARSLARTTAMDYWGEGTLVTVSSASTKGPSVFPLAPSSKSTSGGTAALGCLVKDYFPEPVTVSWNSGALTSGVHTFPAVLQSSGLYSLSSVVTVPSSSLGTQTYICNVNHKPSNTKVDKKVEPKSCDKTHTCPPCPAPDLLGDDSVFLFPPKPKDTLMISRTPEVTCVVVDVAEEDGEVKFNWYVDGVEVHNAKTKPREEQDNSTYRVVSVLTVLHQDWLNGKEYKCKVSNKALPRPIEKTISKAKGQPREPQVYTLPPSRDELTKNQVSLTCLVKGFYPSDIAVEWESNGQPENNYKTTPPVLDSDGSFFLYSKLTVDKSRWQQGNVFSCSVMHEALHNHYTQESLSLSP light: not shown",Kd,[6],4700 nM
same,Kd,[7],230 nM
same,Kd,[8],2.4 nM
same,Kd,[9],5.5 nM
same,KD(IIaH)/KD(IIb),[10],856
same,KD(IIaR)/KD(IIb),[11],41.5
same,KD(IIaR) of the parent polypeptide/KD(IIaR) of the altered polypeptide,[12],4.8
same,KD(IIb) of the parent polypeptide/KD(IIb) of the altered polypeptide,[13],565
"IL6R-BP464/IL6R-L (antibody, human IgG1, kappa, P396Y introduced into IL6R-BP423; copies: 2 + 2) heavy: QVQLQESGPGLVKPSETLSLTCAVSGHSISHDHAWSWVRQPPGEGLEWIGFISYSGITNYNPSLQGRVTISRDNSKNTLYLQMNSLRAEDTAVYYCARSLARTTAMDYWGEGTLVTVSSASTKGPSVFPLAPSSKSTSGGTAALGCLVKDYFPEPVTVSWNSGALTSGVHTFPAVLQSSGLYSLSSVVTVPSSSLGTQTYICNVNHKPSNTKVDKKVEPKSCDKTHTCPPCPAPDLLGDDSVFLFPPKPKDTLMISRTPEVTCVVVDVAEEDGEVKFNWYVDGVEVHNAKTKPREEQYNSTYRVVSVLTVLHQDWLNGKEYKCKVSNKALPRPIEKTISKAKGQPREPQVYTLPPSRDELTKNQVSLTCLVKGFYPSDIAVEWESNGQPENNYKTTPYVLDSDGSFFLYSKLTVDKSRWQQGNVFSCSVMHEALHNHYTQESLSLSP light: not shown",Kd,[4],4 nM
"IL6R-BP563/IL6R-L (antibody, human IgG1, kappa, copies: 2 + 2) heavy: QVQLQESGPGLVKPSETLSLTCAVSGHSISHDHAWSWVRQPPGEGLEWIGFISYSGITNYNPSLQGRVTISRDNSKNTLYLQMNSLRAEDTAVYYCARSLARTTAMDYWGEGTLVTVSSASTKGPSVFPLAPSSKSTSGGTAALGCLVKDYFPEPVTVSWNSGALTSGVHTFPAVLQSSGLYSLSSVVTVPSSSLGTQTYICNVNHKPSNTKVDKKVEPKSCDKTHTCPPCPAPDLLGDDSVFLFPPKPKDTLMISRTPEVTCVVVDVSEEDGDVKFNWYVDGVEVHNAKTKPREEQDNSTYRVVSVLTVLHQDWLNGKEYKCKVSNKALPRPIEKTISKAKGQPREPQVYTLPPSRDELTKNQVSLTCLVKGFYPSDIAVEWESNGQPENNYKTTPPVLDSDGSFFLYSKLTVDKSRWQQGNVFSCSVMHEALHNHYTQESLSLSP light: not shown",Kd,[6],8300 nM
same,Kd,[7],460 nM
same,Kd,[8],12 nM
same,Kd,[9],16 nM
same,KD(IIaH)/KD(IIb),[10],525
same,KD(IIaR)/KD(IIb),[11],29.1
same,KD(IIaR) of the parent polypeptide/KD(IIaR) of the altered polypeptide,[12],2.4
same,KD(IIb) of the parent polypeptide/KD(IIb) of the altered polypeptide,[13],196
